± gives the standard error. For some of these results: Fewer inactive variants are shown than the library holds.
B1: glmS ribozyme (parent)
chain: AUAAAAGCGCCAGAACUACAGAAAUGUAGUUGACGAGGAGGAGGUUUAUCGAAUUUUCGGCGGAUGCCUCCAAA

Assays:
Settings in all cases: with glucosamine-6-phosphate
[1] = variants of: B1; assay: kcat; higher = faster cleavage; RNA array
Outline: (§1)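 Glucosamine-6-phosphate (40 μM to 10 mM) in HEPES/KCl/Mg(OAc)2 buffer was flowed over sequenced MiSeq chips, and tiles were imaged over ~14 h. Barcoded ribozyme variants there had been transcribed in situ by E. coli RNA polymerase and were tracked through a hybridised Cy3 probe at 37 °C. One- or two-exponential decay fits to per-tile medians, normalised to baseline and to non-cleaving reference variants, gave kobs. kcat and KM came from weighted Michaelis–Menten fits across concentrations.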

[2] = variants of: B1; assay: self-cleavage kobs at 2500 uM GlcN6P; higher = faster cleavage; RNA array
Outline: as §1

[3] = variants of: B1; assay: self-cleavage kobs at 10000 uM GlcN6P; higher = faster cleavage; RNA array
Outline: as §1

[4] = variants of: B1; assay: KM; higher = weaker cofactor use; RNA array
Outline: as §1

[5] = variants of: B1; assay: self-cleavage kobs at 40 uM GlcN6P; higher = faster cleavage; RNA array
Outline: as §1

[6] = variants of: B1; assay: self-cleavage kobs at 160 uM GlcN6P; higher = faster cleavage; RNA array
Outline: as §1

[7] = variants of: B1; assay: self-cleavage kobs at 640 uM GlcN6P; higher = faster cleavage; RNA array
Outline: as §1

Variant | kcat [1] | self-cleavage kobs at 2500 uM GlcN6P [2] | self-cleavage kobs at 10000 uM GlcN6P [3] | KM [4] | self-cleavage kobs at 40 uM GlcN6P [5] | self-cleavage kobs at 160 uM GlcN6P [6] | self-cleavage kobs at 640 uM GlcN6P [7]
AUAAAAGCGCCAGAACUACAGAAAUGUAGUUGACGAGGAGGAGGUUUAUCGAACUUUCGGUGGAUGCCUCCAAA [U54C C61U] | 2.59e-05 ± 2.6e-06 s⁻¹ |  |  |  |  |  | 
AUAAAAGCGCCAGAACUACAGAAAUGUAGUUGACGAGGAGGAGGUUUAUCGAACUUUUGGCGGAUGCCUCCAAA [U54C C58U] | 4.86e-05 ± 8.6e-06 s⁻¹ | 4.48e-05 ± 1.5e-05 s⁻¹ | 4.34e-05 ± 9.3e-06 s⁻¹ |  |  |  | 
AUAAAAGCGCCAGAACUACAGAAAUGUAGUUGACGAGGAGGAGGUUUAUCGAAAUUUCGGCGGAUUCCUCCAAA [U54A G66U] | 0.00199 ± 0.00037 s⁻¹ | 0.00141 ± 0.00024 s⁻¹ | 0.00174 ± 0.00024 s⁻¹ | 1460 ± 440 µM | 8.58e-05 ± 1.9e-05 s⁻¹ | 0.000194 ± 3.3e-05 s⁻¹ | 0.000521 ± 8e-05 s⁻¹
AUAAAAGCGCCAGAACUACAGAAAUGUAGUUGACGAGGAGGAGGUUUAUCGAACUUUCGGCGGAUGCCUGCAAA [U54C C70G] | 0.000186 ± 3.5e-05 s⁻¹ | 0.000139 ± 2.6e-05 s⁻¹ | 0.000325 ± 6.2e-05 s⁻¹ |  | 5.08e-05 ± 1.5e-05 s⁻¹ | 0.000109 ± 3.8e-05 s⁻¹ | 0.000175 ± 2.3e-05 s⁻¹
AUAAAAGCGCCAGAACUACAGAAAUGUAGUUGACGAGGAGGAGGUUUAUCGAACUUUCGGCGGAUGCCUCCAAA [U54C] | 0.0582 ± 0.0055 s⁻¹ | 0.0274 ± 0.0017 s⁻¹ | 0.051 ± 0.0026 s⁻¹ | 2290 ± 240 µM | 0.00101 ± 1.9e-05 s⁻¹ | 0.00345 ± 0.00027 s⁻¹ | 0.0121 ± 0.0007 s⁻¹
AUAAAAGCGCCAGAACUACAGAAAUGUAGUUGACGAGGAGGAGGUUUAUCGAACUUUCGGCGGGUGCCUCCAAA [U54C A64G] | 0.016 ± 0.0067 s⁻¹ | 0.0287 ± 0.0082 s⁻¹ | 0.0123 ± 0.0031 s⁻¹ |  | 0.000616 ± 8.4e-05 s⁻¹ | 0.00156 ± 0.00033 s⁻¹ | 0.00883 ± 0.0018 s⁻¹
AUAAAAGCGCCAGAACUACAGAAAUGUAGUUGACGAGGAGGAGGUUUAUCGAAAUAUCGGCGGAUGCCUCCAAA [U54A U56A] | 0.0109 ± 0.0014 s⁻¹ | 0.00712 ± 0.002 s⁻¹ | 0.00887 ± 0.0017 s⁻¹ | 2140 ± 380 µM | 0.00022 ± 4e-05 s⁻¹ | 0.000706 ± 0.0002 s⁻¹ | 0.00224 ± 0.00048 s⁻¹

Source: the supplement of paper PMC7125110
